Measurements reported in IntAct's records for PubMed 21346153.

B1: Peroxiredoxin-6 (Rattus norvegicus (Rat)), O35244 (parent)
chain: MPGGLLLGDEAPNFEANTTIGHIRFHDFLGDSWGILFSHPRDFTPVCTTELGRAAKLAPEFAKRNVKLIALSIDSVEDHFAWSKDINAYNGAAPTEKLPFPIIDDKDRDLAILLGMLDPAEKDEKGMPVTARVVFIFGPDKKLKLSILYPATTGRNFDEILRVVDSLQLTASNPVATPVDWKKGESVMVLPTLPEEEAKQLFPKGVFTKELPSGKKYLRYTPQP

Variants of: B1
Conditions: with 1433e_human YWHAE

effect of a mutation on the interaction	Variant
decreasing interaction strength	MPGGLLLGDEAPNFEANTTIGHIRFHDFLGDAWGILFSHPRDFTPVCTTELGRAAKLAPEFAKRNVKLIALSIDSVEDHFAWSKDINAYNGAAPTEKLPFPIIDDKDRDLAILLGMLDPAEKDEKGMPVTARVVFIFGPDKKLKLSILYPATTGRNFDEILRVVDSLQLTASNPVATPVDWKKGESVMVLPTLPEEEAKQLFPKGVFTKELPSGKKYLRYTPQP [S32A]

Variants of: B1
Conditions: with 1433e_mouse Ywhae

effect of a mutation on the interaction	Variant
decreasing interaction strength	MPGGLLLGDEAPNFEANTTIGHIRFHDFLGDAWGILFSHPRDFTPVCTTELGRAAKLAPEFAKRNVKLIALSIDSVEDHFAWSKDINAYNGAAPTEKLPFPIIDDKDRDLAILLGMLDPAEKDEKGMPVTARVVFIFGPDKKLKLSILYPATTGRNFDEILRVVDSLQLTASNPVATPVDWKKGESVMVLPTLPEEEAKQLFPKGVFTKELPSGKKYLRYTPQP [S32A]
